Data taken from patent publication US20250027114.

Key:
[1] = tested on: T1, eNme2-C-dABE8e (Neisseria meningitidis); assay: cell_activity; details: all N4CN PAMs, E. coli ABE-PPA
T1 sequence: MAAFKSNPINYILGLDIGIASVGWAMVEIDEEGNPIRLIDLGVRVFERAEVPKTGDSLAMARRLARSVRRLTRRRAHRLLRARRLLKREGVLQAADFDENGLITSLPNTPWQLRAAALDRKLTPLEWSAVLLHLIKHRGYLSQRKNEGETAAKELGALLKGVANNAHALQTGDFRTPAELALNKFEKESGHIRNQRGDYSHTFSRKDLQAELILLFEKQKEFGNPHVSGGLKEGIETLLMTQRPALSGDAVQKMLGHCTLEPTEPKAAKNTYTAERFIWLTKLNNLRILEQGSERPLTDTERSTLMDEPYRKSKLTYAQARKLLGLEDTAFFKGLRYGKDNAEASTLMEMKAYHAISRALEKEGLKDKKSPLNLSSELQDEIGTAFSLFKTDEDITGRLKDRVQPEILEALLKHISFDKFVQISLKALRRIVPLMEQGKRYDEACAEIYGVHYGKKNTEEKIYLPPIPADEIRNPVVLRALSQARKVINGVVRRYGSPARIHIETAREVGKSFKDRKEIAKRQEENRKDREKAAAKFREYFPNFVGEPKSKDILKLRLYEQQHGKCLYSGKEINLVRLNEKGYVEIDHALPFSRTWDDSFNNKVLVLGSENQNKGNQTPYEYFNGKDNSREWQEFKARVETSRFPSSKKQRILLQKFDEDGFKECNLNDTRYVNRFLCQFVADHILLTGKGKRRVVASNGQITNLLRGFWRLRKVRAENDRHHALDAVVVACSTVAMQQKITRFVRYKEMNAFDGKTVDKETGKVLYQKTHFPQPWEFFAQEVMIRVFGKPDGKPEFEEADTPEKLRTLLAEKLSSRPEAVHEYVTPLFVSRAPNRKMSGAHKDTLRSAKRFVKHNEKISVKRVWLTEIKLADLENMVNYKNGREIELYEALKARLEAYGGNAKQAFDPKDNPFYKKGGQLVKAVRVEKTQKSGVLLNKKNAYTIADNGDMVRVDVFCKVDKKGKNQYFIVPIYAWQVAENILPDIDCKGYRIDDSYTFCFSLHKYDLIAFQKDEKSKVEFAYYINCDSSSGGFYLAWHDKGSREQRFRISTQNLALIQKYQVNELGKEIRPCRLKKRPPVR

[2] = tested on: T2, E3-18-ABE8e (Neisseria meningitidis); assay: cell_activity; details: PAM N4YNC average, E. coli ABE-PPA; 33% on N4YND
T2 sequence: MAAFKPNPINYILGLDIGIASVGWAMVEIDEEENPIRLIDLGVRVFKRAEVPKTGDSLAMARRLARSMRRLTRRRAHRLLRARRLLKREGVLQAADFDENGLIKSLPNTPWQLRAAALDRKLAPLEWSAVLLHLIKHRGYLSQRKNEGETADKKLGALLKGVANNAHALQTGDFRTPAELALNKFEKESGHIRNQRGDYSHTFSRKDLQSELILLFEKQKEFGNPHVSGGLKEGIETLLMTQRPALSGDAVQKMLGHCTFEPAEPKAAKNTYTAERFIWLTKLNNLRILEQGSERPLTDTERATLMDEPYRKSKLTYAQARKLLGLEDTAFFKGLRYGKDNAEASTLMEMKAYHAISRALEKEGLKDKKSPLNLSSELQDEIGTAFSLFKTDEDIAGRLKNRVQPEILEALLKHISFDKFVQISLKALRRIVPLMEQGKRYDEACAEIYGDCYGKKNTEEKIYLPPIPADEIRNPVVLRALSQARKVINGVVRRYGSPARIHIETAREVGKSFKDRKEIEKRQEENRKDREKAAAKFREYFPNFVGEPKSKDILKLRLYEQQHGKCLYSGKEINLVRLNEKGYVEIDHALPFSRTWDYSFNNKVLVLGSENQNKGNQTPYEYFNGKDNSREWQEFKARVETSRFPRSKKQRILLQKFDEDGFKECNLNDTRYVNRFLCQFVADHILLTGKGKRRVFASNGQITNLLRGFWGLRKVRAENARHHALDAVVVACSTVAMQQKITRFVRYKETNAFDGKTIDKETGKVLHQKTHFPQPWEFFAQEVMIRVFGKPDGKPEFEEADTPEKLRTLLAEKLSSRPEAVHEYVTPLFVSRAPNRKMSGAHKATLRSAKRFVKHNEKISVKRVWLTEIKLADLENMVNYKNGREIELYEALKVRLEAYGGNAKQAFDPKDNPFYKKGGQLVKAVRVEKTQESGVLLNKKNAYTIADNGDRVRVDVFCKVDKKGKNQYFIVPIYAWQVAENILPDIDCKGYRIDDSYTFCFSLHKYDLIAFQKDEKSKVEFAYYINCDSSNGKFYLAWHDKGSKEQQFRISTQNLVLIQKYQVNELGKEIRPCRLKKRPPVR

## AUGGCCCAGACUGAGCACGUGAGGUUGUAGCUCCCUUUCUCAUUUCGGAAACGAAAUGAGAACCGUUGCUACAAUAAGGCCGUCUGAAAAGAUGUGCCGCAACGCUCUGCCCCUUAAAGCUUCUGCUUUAAGGGGCAUCGUUUA / ATGGCCCAGACTGAGCACGTGA / TCACGTGCTCAGTCTGGGCCAT [ABE-PPA sgRNA ; ABE-PPA protospacer library target]
[1]
  activity (% A-to-G conversion): > 80
[2]
  activity (% A-to-G conversion): 61
